Biological target: eGFP-myc-Orai1 (UniProt Q96D31)
Assay: cell-based or functional assay

Chain of eGFP-myc-Orai1 (Q96D31 whole entry): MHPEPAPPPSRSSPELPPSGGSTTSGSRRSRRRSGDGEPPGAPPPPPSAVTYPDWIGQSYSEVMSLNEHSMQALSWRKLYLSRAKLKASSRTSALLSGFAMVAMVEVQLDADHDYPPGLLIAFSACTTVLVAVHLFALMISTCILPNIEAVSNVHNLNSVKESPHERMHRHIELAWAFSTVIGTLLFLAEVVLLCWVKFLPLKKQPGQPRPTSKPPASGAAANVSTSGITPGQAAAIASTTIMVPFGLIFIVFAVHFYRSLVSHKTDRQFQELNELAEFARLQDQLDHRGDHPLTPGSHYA

diffusion coefficient fitted to FRAP of a single cell expressing eGFP-Orai1 with CAD: 0.026 µm^2/s | effective diffusion coefficient (D) of GFP-Orai1 co-expressed with CAD, FRAP in HEK 293 cells: 0.036 µm^2/s | mobile fraction of GFP-Orai1 co-expressed with CAD, FRAP: 87% | slowing of Orai1 diffusion by CAD, FRAP: 2 fold
Substance: mCh-CAD (from UniProt Q13586 342-448)

From patent US20120165265A1, “Calcium Signaling Modulators Involving STIM and ORAI Proteins” (priority 2009, published 2012)
